The text below walks through data of patent US20130273076A1 (Harvard, published 2013).

Series [1] deals with EphA2 (expressed in HEK293T cells).
For series [2], the target named is Flag-EphB2-Acyto (cytoplasmic truncated version of EphB2).
Series [3] concerns the target Flag-EphB2-kinase dead (KD).
In series [4] the target is endogenous RhoA of mouse brain (mouse, UniProt Q9QUI0 1-190). In words: cell-based or functional assay.

Residue numbers refer to the chain shown, from its start. In names and notes the source's numbering stands.

Sequence of endogenous RhoA of mouse brain (Q9QUI0 1-190 limits assumed): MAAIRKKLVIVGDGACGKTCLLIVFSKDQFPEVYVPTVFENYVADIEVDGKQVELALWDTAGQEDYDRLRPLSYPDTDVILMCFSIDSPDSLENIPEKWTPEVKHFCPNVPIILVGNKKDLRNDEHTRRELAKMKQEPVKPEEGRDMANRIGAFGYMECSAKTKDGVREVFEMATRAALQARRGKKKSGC
Sequence of EphA2 (expressed in HEK293T cells) (P29317 whole entry, the tested form may be a part): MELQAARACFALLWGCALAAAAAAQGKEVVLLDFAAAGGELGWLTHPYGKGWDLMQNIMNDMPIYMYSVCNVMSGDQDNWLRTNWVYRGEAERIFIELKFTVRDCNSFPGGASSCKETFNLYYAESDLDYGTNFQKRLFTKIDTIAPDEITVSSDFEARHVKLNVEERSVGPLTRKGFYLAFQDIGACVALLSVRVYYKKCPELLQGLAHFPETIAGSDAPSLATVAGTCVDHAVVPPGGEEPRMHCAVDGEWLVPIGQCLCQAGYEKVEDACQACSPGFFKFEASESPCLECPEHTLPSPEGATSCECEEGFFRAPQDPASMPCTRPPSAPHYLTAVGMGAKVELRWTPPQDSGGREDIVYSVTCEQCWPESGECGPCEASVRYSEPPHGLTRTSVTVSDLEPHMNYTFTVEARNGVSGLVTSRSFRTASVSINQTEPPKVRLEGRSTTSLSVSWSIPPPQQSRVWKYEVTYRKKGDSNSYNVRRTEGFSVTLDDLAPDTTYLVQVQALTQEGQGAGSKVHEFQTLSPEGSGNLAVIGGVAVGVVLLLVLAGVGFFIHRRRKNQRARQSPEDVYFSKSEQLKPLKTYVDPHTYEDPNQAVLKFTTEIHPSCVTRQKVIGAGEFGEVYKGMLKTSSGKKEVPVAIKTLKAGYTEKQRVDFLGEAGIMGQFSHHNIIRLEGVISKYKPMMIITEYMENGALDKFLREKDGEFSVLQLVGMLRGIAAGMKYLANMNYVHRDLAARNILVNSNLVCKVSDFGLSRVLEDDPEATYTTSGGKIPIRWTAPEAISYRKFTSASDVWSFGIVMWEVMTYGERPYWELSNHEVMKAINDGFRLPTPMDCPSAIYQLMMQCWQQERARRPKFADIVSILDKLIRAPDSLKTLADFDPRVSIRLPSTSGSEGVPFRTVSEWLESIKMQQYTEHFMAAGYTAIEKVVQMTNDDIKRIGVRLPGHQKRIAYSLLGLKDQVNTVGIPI

B1: endogenous mouse Ephexin5 (neurons, brain lysates) (enzyme, UniProt Q5FWH6 1-849, looked up)
chain: MSAQSLPAATPPTLKPPRIIRPRPPSRHRAPHSPGPLHNGSSPKALPQISNDASASVCTSIFWEPPTASLKPPALLPPSVSRTSLDSQTSPDSPSSTPSPSPVSRRSISPEPAPCSPVPPPKPSGSSRTPLPSGPTPLQDGSASAPGTVRRLAGKFEWGAEGKAQSSDSLERCSQGSTEVNGEKETPEAALSGNGSQENGTPDAALACPPCCPCVCHVAKPGLELRWVPVGSSEDILRIPCRASPLRASRSRINPPVISHPPVVLTSYRSTAERKLLPPLKPPKPTKVRQDISTSEELPQPDLKLPSEDGIQTATKAWEGDRPEGAPLNAPPVALEGREEEGLDGLKGLQWELPLQDEPLYQTYRAAVLSEELWGVGEDGGPSPANPGEAPTFSRLPGPRNTLWQELPAVRGSGLLESLSPQERRMQESLFEVVTSEASYLRSLRLLTDTFVLSQALRDTLTPRDHHTLFSNVQRVQSVSERFLGTLLSRVRSSPHITDLCDVVHAHAVGPFFVYVDYVRNQQYQEETYSRLMDTNVRFSAELRRLQSLPKCERLPLPSFLLLPFQRITRLRMLLQNILSQTEEGSSRQENAQKALGAVSKIIERCSAEVGRMKQTEELIRLTQRLRFHKVKALPLVSWSRRLELQGELTELGCRRGGVLFTSRPRFTPLCLLLFSDLLLITQPKSGQRLQVLDYAHRSLVQAQQVPDPSGPPTFRLSLLSNHQGRPTHRLLQAASLSDMQRWLGAFPTPGPLPCSPDTIYEDCECSQELCSEPSTPSKTEGQSLESKAPRKHLHKNPEGWLKGLPGAFPAQLVCEVTGEHERRKHLRQHQKLLEAVGPSSGTPDTPQP
Take B1: the “phosphorylation of Ephexin5 at Y361 (anti-pY361 immunoblot)” value in series [1] is “when EphA4 or EphA2 were expressed in HEK293T cells they detected little to no phosphorylation of Ephexin5 at Y361”; with Flag-EphA4, “when EphA4 or EphA2 were expressed in HEK293T cells they detected little to no phosphorylation of Ephexin5 at Y361”; with Flag-EphB2, “when wild type EphB2, but not a kinase dead or cytoplasmic truncated version of EphB2, was expressed in HEK293T cells together with Ephexin5, Ephexin5 become tyrosine phosphorylated at Y361”; in series [2], “when wild type EphB2, but not a kinase dead or cytoplasmic truncated version of EphB2, was expressed in HEK293T cells together with Ephexin5, Ephexin5 become tyrosine phosphorylated at Y361”; in series [3], “when wild type EphB2, but not a kinase dead or cytoplasmic truncated version of EphB2, was expressed in HEK293T cells together with Ephexin5, Ephexin5 become tyrosine phosphorylated at Y361”. For the same molecule, in the series with Flag-EphB2, the “tyrosine phosphorylation of Ephexin5 (anti-phosphotyrosine 4G10 immunoblot)” value is reported as “in the presence of EphB2, Ephexin5-WT, but not Ephexin5-Y361F, become tyrosine phosphorylated”. The “anti-RhoA signal from RBD pulldown assays, Ephexin5-/- against wild type brain lysates” value in series [4] came out at 4 fold.

B2: Ephexin5-Y361F-Myc (protein)
chain: B1 chain with Y361F
Take B2: in the series with Flag-EphB2, the “tyrosine phosphorylation of Ephexin5 (anti-phosphotyrosine 4G10 immunoblot)” value is “in the presence of EphB2, Ephexin5-WT, but not Ephexin5-Y361F, become tyrosine phosphorylated”.
